# Reference: PMC8051608, “Overexpression of GmMYB14 improves high‐density yield and drought tolerance of soybean through regulating plant architecture mediated by the brassinosteroid pathway”
# T1: GmMYB14 (Glycine max cv. Tianlong No. 1, UniProt K7MYP5 1-291)
# T1 sequence: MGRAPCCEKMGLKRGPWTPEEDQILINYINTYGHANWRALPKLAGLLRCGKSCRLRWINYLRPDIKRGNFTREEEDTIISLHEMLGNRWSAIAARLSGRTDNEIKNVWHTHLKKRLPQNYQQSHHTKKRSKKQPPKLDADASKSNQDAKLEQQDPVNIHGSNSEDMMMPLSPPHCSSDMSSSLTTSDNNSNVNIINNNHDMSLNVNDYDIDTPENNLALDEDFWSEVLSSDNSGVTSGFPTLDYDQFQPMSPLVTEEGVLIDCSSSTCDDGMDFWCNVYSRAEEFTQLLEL
# B1: GmBEN1 promoter AC element 1 probe (30 bp) (dsDNA)
# DNA 1: TAATACACCAAGCCACCTACCTTGTCTCTTT
# DNA 2: AAAGAGACAAGGTAGGTGGCTTGGTGTATTA
# Target: T1, GmMYB14
# Experiment: EMSA; 100x cold probe competition tested; EMSA Kit (Thermo Fisher), non-denaturing 6% polyacrylamide gel, streptavidin-HRP/ECL detection; buffer, salt, pH and temperature not stated
# Details: protein: recombinant; tags: His (pCzn1-His vector); label: biotin; annealed complementary oligos
binder,measurement,value
B1,binding result,binds
